From paper doi:10.1101/2024.05.03.592134

Legend:
[1] = target: Bxy_22780 E350G mutant (nucleophile mutant) (Bacteroides xylanisolvens); test: crystal structure
[2] = target: Bxy_22780 wild-type (β-1,2-galactosidase from Bacteroides xylanisolvens, GH35) (Bacteroides xylanisolvens); test: crystal structure

Bxy_22780 E350G mutant (nucleophile mutant) (enzyme)
stoichiometry N [1]: 4

Bxy_22780 wild-type (β-1,2-galactosidase from Bacteroides xylanisolvens, GH35) (enzyme)
stoichiometry N [2]: 4
